For orientation: Kd means the free concentration of one partner at which half of the binding sites on the other are occupied at equilibrium, for simple one-to-one binding.

These results are taken from PMC4317571.

For assay [1], the target named is p53 K382ac peptide (Homo sapiens) (UniProt P04637). Particulars: cited from earlier work.
Assay [2] concerns the target tandem Tudor domain (TTD) of p53-binding protein 1 (53BP1), wild type (UniProt Q12888). Briefly: other fluorescence titration + NMR titration.
For assay [3], the target named is bromodomain (BD) of p300. Kind of assay: NMR titration.
Assay [4] addresses tandem Tudor domain (TTD) of p53-binding protein 1 (53BP1), wild type (UniProt Q12888). Briefly: other fluorescence titration.

For the substance CBP bromodomain (from UniProt Q92793), the equilibrium dissociation constant (Kd) in assay [1] is 187 µM.
Consider “p53K381ac peptide (p53 acetylated at K381) (from UniProt P04637 377-386)”, for which the Kd in assay [2] was more than 5000 µM; in assay [3], 241 µM.
For the substance “p53K381acK382me2 peptide (p53 acetylated at K381 and dimethylated at K382) (from UniProt P04637 377-386)”, the Kd in assay [4] was 0.76 µM; in assay [3], 282 µM.
